Tests used:
[1] = molecular target: T1, DLL3 target antigen coated on Octet SA tips (binning experiment) (Homo sapiens (Human), UniProt Q9NYJ7 27-492, Probably biotinylated for capture on streptavidin (SA) tips. The site is not stated.); assay: Octet binning on DLL3-coated SA tips; competitor: 2HCE117
T1 sequence: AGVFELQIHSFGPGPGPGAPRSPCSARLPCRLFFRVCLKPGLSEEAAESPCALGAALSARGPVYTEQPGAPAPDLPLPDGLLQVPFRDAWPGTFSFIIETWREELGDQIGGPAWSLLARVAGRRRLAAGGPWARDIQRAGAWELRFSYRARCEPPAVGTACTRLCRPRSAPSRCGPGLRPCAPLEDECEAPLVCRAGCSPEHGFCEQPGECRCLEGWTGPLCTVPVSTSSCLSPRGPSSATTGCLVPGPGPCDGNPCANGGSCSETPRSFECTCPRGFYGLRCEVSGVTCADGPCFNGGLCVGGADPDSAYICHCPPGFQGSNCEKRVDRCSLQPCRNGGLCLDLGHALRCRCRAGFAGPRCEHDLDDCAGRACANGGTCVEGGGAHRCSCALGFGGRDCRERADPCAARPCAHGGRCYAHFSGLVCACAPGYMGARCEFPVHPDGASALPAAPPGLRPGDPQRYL
Description: (§1) Antibody binning experiments were carried out for 5 anti-DLL3 VHHs and an anti-human DLL3 BiTE (SEQ ID NO: 756). The target antigen was coated on a series of Octet SA tips. Each series of tips was first soaked in a periplasmic extract containing one specific VHH. After the response signals reached saturation, the tips were transferred to a mix of PEs containing again the first VHH (at the same concentration) plus a different VHH (termed secondary VHH) for each tip of the series. Secondary VHH that still bind the target antigen in the presence of the first VHH will show an increased response, as compared to the binding response of the first VHH alone. This was repeated for each VHH as primary VHH until all VHH were tested against each other in both directions (as primary and as secondary binder). From the response data, the bins were deduced for each VHH. 2HCE117 and 3HCE4 show competition with the human DLL3 BiTEs, whereas 3HCE56 and 3HCE87 show a partial competition.

[2] = molecular target: T2, recombinant human DLL3 protein (human, UniProt Q9NYJ7 27-492, limits assumed); assay: Fortebio Octet Red, DLL3 immobilised on tips, dilution series of the VHH, 1:1 binding model; KD error 1.39E-11; Full R2 0.9994
T2 construct: also called rhu DLL3; human biotinylated DLL3
T2 sequence (looked up): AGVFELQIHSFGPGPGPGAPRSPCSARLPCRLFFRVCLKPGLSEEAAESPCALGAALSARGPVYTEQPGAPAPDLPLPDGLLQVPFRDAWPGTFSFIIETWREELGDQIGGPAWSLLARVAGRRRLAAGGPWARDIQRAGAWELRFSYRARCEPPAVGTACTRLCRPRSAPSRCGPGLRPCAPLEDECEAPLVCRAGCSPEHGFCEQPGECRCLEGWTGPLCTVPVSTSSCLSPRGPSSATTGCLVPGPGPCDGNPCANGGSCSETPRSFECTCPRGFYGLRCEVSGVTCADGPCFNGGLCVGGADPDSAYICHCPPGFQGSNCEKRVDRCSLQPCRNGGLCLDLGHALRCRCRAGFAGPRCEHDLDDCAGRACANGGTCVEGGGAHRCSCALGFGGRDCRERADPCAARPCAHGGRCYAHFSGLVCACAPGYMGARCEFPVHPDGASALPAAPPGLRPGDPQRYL
Description: (§2) Additional experiments were carried out to further characterize the binding properties of the anti-DLL3 constructs. Binding properties tested include dissociation constant (KD), off-rate (koff), binding to DLL3 protein by ELISA and binding to CHO cells expressing human, cyno or mouse DLL3. To obtain off-rate (koff), human biotinylated DLL3 was immobilized on Octet SA tips, and cynomolgus or mouse DLL3 was immobilized on Octet AR2G tips. For each DLL3 protein, the binding to a dilution series of each anti-DLL3 construct was measured using Fortebio Octet Red. The dissociation constant (KD), off-rate (koff) and other kinetic parameters for each anti-DLL3 construct were calculated using a 1:1 binding model. In addition, binding of these anti-DLL3 constructs to CHO cells expressing human, cyno or mouse DLL3 protein was analyzed using flow cytometry (FACS).

[3] = molecular target: T1, DLL3 target antigen coated on Octet SA …; assay: Octet binning on DLL3-coated SA tips; competitor: 3HCE4
Description: as §1

[4] = molecular target: T2, recombinant human DLL3 protein; assay: Fortebio Octet Red, DLL3 immobilised on tips, dilution series of the VHH, 1:1 binding model; kon error 1.20E+02; Full R2 0.9994
Description: as §2

mouse DLL3 on CHO cells = molecular target: T3, mouse DLL3 on CHO cells (mouse, UniProt O88516 33-592); assay: flow cytometry (FACS) on CHO cells expressing mouse DLL3
T3 construct: whole, on cells; also called CHO cells expressing mouse DLL3
T3 sequence (looked up): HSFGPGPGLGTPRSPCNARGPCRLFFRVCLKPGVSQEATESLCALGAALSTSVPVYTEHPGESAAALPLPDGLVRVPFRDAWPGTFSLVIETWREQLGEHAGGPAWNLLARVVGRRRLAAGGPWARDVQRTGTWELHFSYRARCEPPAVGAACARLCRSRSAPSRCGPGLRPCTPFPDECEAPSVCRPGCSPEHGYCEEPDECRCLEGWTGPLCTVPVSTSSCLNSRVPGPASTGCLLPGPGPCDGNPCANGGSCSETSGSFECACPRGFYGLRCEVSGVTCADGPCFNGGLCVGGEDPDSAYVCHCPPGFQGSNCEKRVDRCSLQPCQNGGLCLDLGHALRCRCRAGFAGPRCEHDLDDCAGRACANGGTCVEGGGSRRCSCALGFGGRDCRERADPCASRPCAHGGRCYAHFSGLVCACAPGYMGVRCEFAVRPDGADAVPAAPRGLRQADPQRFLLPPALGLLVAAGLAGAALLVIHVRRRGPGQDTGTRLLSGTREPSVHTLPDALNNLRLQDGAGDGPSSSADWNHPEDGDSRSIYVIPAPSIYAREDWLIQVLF
Description: as §2

B1: 2HCE27 anti-DLL3 VHH (VHH)
VHH: QVQLQESGGGLVQAGGSLRLSCAASGRTFRSYAMGWFRQAPGKEREFIAVIIMSDGSTSYADSVKGRFTISRDNAKNTLYLQMNSLKPEDTAVYYCAARRDYFTGVYDYWGQGTQVTVSS
notes: In the binning assay it was used as a periplasmic extract; also called anti-DLL3 (2HCE27)
binning response (unit not given) [1]: 19900
Kd [2]: 7.89 nM
binning response (unit not given) [3]: 53.4
kon [4]: 80900 M⁻¹ s⁻¹
binding result (mouse DLL3 on CHO cells): binds

Reference: patent publication US20230227577A1 (MYTHIC THERAPEUTICS, published 2023)
